The results in this text go back to PMC13462943.

The target in the experiment is SAM. Description: native mass spectrometry. Particulars: protein and substrate concentrations 5 µM.

As to “GLP methyltransferase domain (aa 1001-1266), wild type (from UniProt Q9H9B1-1) C1073Y”, the other: relative abundance, 1x SAM bound (parent: 11) was found to be 18. Besides, the other: relative abundance, free protein (parent: 88) was determined as 80.
